Results taken from PMC10495444.

What was measured:
[1] = target: mXkr4ΔC Q332E (aXkr4), constitutively active mutant, fused with monomeric EGFP (mouse); experiment: SEC + native gel or EMSA; whole lysate of transfected HEK293T cells in LMNG/GDN 1:1 loaded on Superdex Increase 200 10/300 GL (10 mM HEPES-NaOH pH 7.5, 150 mM NaCl, 0.01% LMNG/GDN, 10% glycerol, 1 mM CaCl2 or 0.5 mM EGTA); dimer fraction collected by EGFP fluorescence; then BN-PAGE with anti-V5 blot after 1 h at 4, 16, 25 or 37 °C
[2] = target: mouse Xkr4 C-terminal cleaved form (mXkr4ΔC) fused with monomeric EGFP (mouse); experiment: as above

mXkr4ΔC Q332E (aXkr4), constitutively active mutant, fused with monomeric EGFP (domain or fragment)
stoichiometry N [1]: 2

mouse Xkr4 C-terminal cleaved form (mXkr4ΔC) fused with monomeric EGFP (domain or fragment)
stoichiometry N [2]: 2
